Assay results from the supplement of paper PMC11136658.

System: peptide library, one residue held at a place counted from the Y acceptor
Assay: relative phosphorylation of the sub-library (ratio to the mean residue at this position); higher = residue favoured
How it was run: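 In 384-well plates, purified recombinant kinases were incubated for 90 min with 50 μM ATP containing γ-32P-ATP and biotinylated Tyr-centred peptide libraries, each mixture fixing one residue at a single position between −5 and +5. After capture on streptavidin membranes and rinsing, peptides were quantified by phosphorimaging with ImageQuant. Per-position intensities were scaled to the sum of the 18 (Ser/Thr-free library: 16) randomized residues, then multiplied by that number.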

Chain of LTK, construct: aa450-end, human (P29376 450-864, looked up): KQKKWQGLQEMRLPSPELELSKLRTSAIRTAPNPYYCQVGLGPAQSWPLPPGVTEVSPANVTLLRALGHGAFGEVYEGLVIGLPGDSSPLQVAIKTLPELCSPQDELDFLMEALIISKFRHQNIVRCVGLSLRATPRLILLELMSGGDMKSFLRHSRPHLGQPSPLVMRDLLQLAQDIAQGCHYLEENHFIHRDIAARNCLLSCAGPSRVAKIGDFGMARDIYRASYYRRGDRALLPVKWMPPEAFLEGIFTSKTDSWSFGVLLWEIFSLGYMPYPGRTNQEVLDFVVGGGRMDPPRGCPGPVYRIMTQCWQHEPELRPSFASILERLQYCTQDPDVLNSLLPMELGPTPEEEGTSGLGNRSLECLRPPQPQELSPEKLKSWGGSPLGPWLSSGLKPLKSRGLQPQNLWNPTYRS
Chain of MERTK, construct: aa578-872, human (Q12866 578-872, looked up): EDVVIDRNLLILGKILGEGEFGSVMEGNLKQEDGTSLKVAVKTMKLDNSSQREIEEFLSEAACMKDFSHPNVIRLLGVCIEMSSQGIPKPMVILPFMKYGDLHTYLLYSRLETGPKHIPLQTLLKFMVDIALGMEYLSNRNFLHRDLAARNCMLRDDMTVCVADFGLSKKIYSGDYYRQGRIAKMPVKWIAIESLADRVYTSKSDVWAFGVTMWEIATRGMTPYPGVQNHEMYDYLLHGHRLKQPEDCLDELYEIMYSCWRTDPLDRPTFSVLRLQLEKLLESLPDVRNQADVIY

LIMK2, construct: Full length, human (from UniProt P53671)
relative phosphorylation
Settings | at +1 | at +2 | at +3 | at +4 | at +5 | at -1 | at -2 | at -3 | at -4 | at -5
A fixed | 0.976 | 0.966 | 1.08 | 1.3 | 0.842 | 1.01 | 0.854 | 1.04 | 1.16 | 1.03
D fixed | 0.585 | 0.603 | 0.651 | 0.577 | 0.528 | 0.594 | 0.554 | 0.548 | 0.717 | 0.683
E fixed | 0.556 | 0.664 | 0.635 | 0.693 | 0.554 | 0.615 | 0.56 | 0.529 | 0.643 | 0.723
F fixed | 0.891 | 1.1 | 0.986 | 0.945 | 0.84 | 0.819 | 0.936 | 0.877 | 0.858 | 0.92
G fixed | 0.979 | 1.06 | 1.1 | 1.48 | 1.07 | 1.08 | 1.08 | 1.24 | 1.27 | 1.05
H fixed | 1.33 | 1.11 | 1.25 | 1.39 | 1.13 | 1.05 | 1.18 | 1.14 | 0.993 | 1.13
I fixed | 0.695 | 0.788 | 0.744 | 0.691 | 0.53 | 0.782 | 0.82 | 0.632 | 0.691 | 0.818
K fixed | 1.65 | 1.47 | 1.31 | 1.43 | 1.73 | 1.54 | 1.51 | 1.6 | 1.46 | 1.46
L fixed | 0.739 | 0.931 | 0.795 | 0.891 | 0.749 | 0.896 | 0.86 | 0.865 | 0.815 | 0.849
M fixed | 0.822 | 1.01 | 1.1 | 0.899 | 0.75 | 0.922 | 0.857 | 0.669 | 0.79 | 0.744
N fixed | 0.958 | 0.851 | 0.879 | 0.724 | 1.07 | 1.1 | 1.07 | 1.09 | 0.928 | 0.852
P fixed | 1.23 | 1.31 | 1.33 | 1.4 | 1.13 | 1.28 | 1.26 | 1.33 | 1.19 | 1.15
Q fixed | 1.05 | 0.775 | 0.831 | 0.66 | 1.12 | 0.944 | 0.911 | 1.13 | 0.988 | 0.893
R fixed | 1.79 | 1.28 | 1.3 | 1.19 | 2 | 1.65 | 1.6 | 1.59 | 1.55 | 1.52
V fixed | 0.647 | 0.84 | 0.78 | 0.713 | 0.689 | 0.715 | 0.887 | 0.765 | 0.783 | 0.774
W fixed | 1.1 | 1.23 | 1.22 | 1.02 | 1.28 | 0.986 | 1.05 | 0.96 | 1.16 | 1.4
pThr fixed | 0.62 | 0.618 | 0.541 | 0.618 | 0.406 | 0.623 | 0.566 | 0.539 | 0.717 | 0.671
pTyr fixed | 0.617 | 0.693 | 0.604 | 0.497 | 0.519 | 0.868 | 0.658 | 0.599 | 0.627 | 0.759

LTK, construct: aa450-end, human (from UniProt P29376)
relative phosphorylation
Settings | at +1 | at +2 | at +3 | at +4 | at +5 | at -1 | at -2 | at -3 | at -4 | at -5
A fixed | 2.49 | 0.74 | 0.654 | 0.78 | 0.895 | 0.879 | 1.07 | 0.891 | 1.26 | 1.05
D fixed | 0.526 | 0.697 | 0.327 | 0.862 | 0.716 | 1.28 | 0.86 | 1.09 | 0.982 | 1.02
E fixed | 1.34 | 0.934 | 0.278 | 0.952 | 0.642 | 0.877 | 0.963 | 1.49 | 1.21 | 0.905
F fixed | 0.908 | 1.31 | 2.08 | 1.11 | 1.37 | 0.992 | 0.711 | 1.03 | 1.05 | 1.01
G fixed | 0.74 | 0.404 | 0.61 | 0.982 | 1.12 | 0.345 | 1.17 | 0.983 | 1.19 | 1.19
H fixed | 0.848 | 0.806 | 0.808 | 1.11 | 0.914 | 1.12 | 1.08 | 0.947 | 0.883 | 0.961
I fixed | 1.23 | 1.1 | 2.95 | 0.875 | 1 | 2.47 | 1.01 | 0.705 | 0.762 | 0.839
K fixed | 0.402 | 0.708 | 0.361 | 1.1 | 0.949 | 0.377 | 1.09 | 1.09 | 1.05 | 1.23
L fixed | 1.07 | 1.41 | 1.38 | 0.85 | 1.04 | 2.06 | 0.934 | 0.916 | 1.01 | 0.999
M fixed | 1.82 | 1.19 | 1.82 | 1.07 | 0.968 | 0.982 | 0.882 | 0.886 | 0.878 | 0.844
N fixed | 0.476 | 0.908 | 0.445 | 0.822 | 0.855 | 1.27 | 0.986 | 1.18 | 0.858 | 1.17
P fixed | 0.18 | 0.683 | 0.671 | 1.02 | 1.65 | 0.835 | 1.04 | 0.968 | 1.2 | 1.14
Q fixed | 1.21 | 0.834 | 0.468 | 1.18 | 0.763 | 0.576 | 1.07 | 0.923 | 1.1 | 0.987
R fixed | 0.564 | 1.21 | 0.453 | 1.28 | 1.19 | 0.372 | 1.35 | 1.29 | 1.51 | 1.32
S fixed | 1.02 | 0.654 | 0.547 | 0.916 | 0.916 | 0.477 | 1.07 | 1 | 0.679 | 0.831
T fixed | 0.833 | 0.609 | 0.786 | 0.851 | 1.07 | 0.866 | 1.09 | 0.91 | 0.602 | 0.703
V fixed | 1.27 | 1.1 | 2.09 | 0.854 | 0.806 | 1.68 | 0.894 | 0.757 | 0.735 | 0.815
W fixed | 1.07 | 2.71 | 1.27 | 1.37 | 1.14 | 0.536 | 0.731 | 0.943 | 1.04 | 0.993
pThr fixed | 0.903 | 0.538 | 0.284 | 0.676 | 0.557 | 0.691 | 0.702 | 0.79 | 0.885 | 0.891
pTyr fixed | 1.46 | 2.37 | 0.533 | 1.29 | 0.546 | 4.33 | 1.16 | 1.12 | 1.11 | 1.06

MERTK, construct: aa578-872, human (from UniProt Q12866)
relative phosphorylation
Settings | at +1 | at +2 | at +3 | at +4 | at +5 | at -1 | at -2 | at -3 | at -4 | at -5
A fixed | 2.07 | 0.87 | 0.578 | 0.92 | 1.15 | 0.711 | 1.06 | 1.01 | 1.28 | 1.1
D fixed | 0.89 | 0.601 | 0.483 | 0.962 | 0.839 | 0.591 | 0.967 | 1.27 | 1.12 | 0.979
E fixed | 1.69 | 1.01 | 0.426 | 1.27 | 0.786 | 0.468 | 1.28 | 1.55 | 1.44 | 0.974
F fixed | 1.01 | 1.64 | 1.93 | 1.14 | 0.565 | 1.75 | 0.655 | 0.836 | 0.595 | 1.03
G fixed | 0.859 | 0.321 | 0.63 | 1.37 | 1.61 | 0.299 | 1.63 | 1.28 | 1.46 | 1.31
H fixed | 0.791 | 0.687 | 0.848 | 1.12 | 1.01 | 1.4 | 0.989 | 0.875 | 0.891 | 0.994
I fixed | 0.708 | 1.34 | 1.58 | 0.549 | 0.621 | 2.37 | 0.533 | 0.482 | 0.84 | 0.889
K fixed | 0.25 | 0.594 | 0.254 | 0.822 | 0.996 | 0.436 | 0.948 | 0.746 | 0.911 | 1.05
L fixed | 0.831 | 1.4 | 2.13 | 0.799 | 0.745 | 2.69 | 0.777 | 0.863 | 1.02 | 0.993
M fixed | 1.4 | 1.2 | 1.64 | 1.09 | 0.917 | 1.14 | 0.68 | 0.967 | 0.968 | 1
N fixed | 0.447 | 0.768 | 0.465 | 0.76 | 0.879 | 0.842 | 1.26 | 1.21 | 0.926 | 1.13
P fixed | 0.172 | 0.684 | 1.17 | 1.2 | 2.65 | 0.481 | 1.18 | 1.32 | 1.25 | 1.24
Q fixed | 1.04 | 0.695 | 0.72 | 0.962 | 0.81 | 0.63 | 1.19 | 0.953 | 1.16 | 1.09
R fixed | 0.353 | 0.679 | 0.392 | 1.07 | 0.991 | 0.439 | 1.09 | 0.775 | 1.2 | 1.13
S fixed | 1.33 | 0.725 | 0.562 | 0.926 | 1.08 | 0.517 | 1.34 | 1.16 | 0.807 | 0.783
T fixed | 1.3 | 0.973 | 0.838 | 1 | 0.97 | 0.939 | 1.1 | 1.17 | 0.667 | 0.874
V fixed | 1.53 | 1.33 | 1.55 | 0.904 | 0.756 | 1.38 | 0.842 | 0.803 | 0.866 | 0.862
W fixed | 1.34 | 2.47 | 1.8 | 1.14 | 0.608 | 0.916 | 0.484 | 0.743 | 0.594 | 0.564
pThr fixed | 1.89 | 1.18 | 0.3 | 0.633 | 0.568 | 0.718 | 0.915 | 1.1 | 0.901 | 0.902
pTyr fixed | 1.96 | 2.62 | 0.613 | 0.678 | 0.61 | 2.26 | 1.19 | 1.46 | 1.13 | 0.957
